Experimental data as given in patent US20220031841A1 (ABSCI, published 2022).

T1: Src homology 2 (SH2) domain containing inositol polyphosphate 5-phosphatase 1 (SHIP1) (human, UniProt Q92835 1-1189)
T1 construct: The array carries full-length recombinant human proteins expressed in S. cerevisiae, purified and printed on glass slides; also called INPP5D; INPP5D/SHIP1
T1 sequence: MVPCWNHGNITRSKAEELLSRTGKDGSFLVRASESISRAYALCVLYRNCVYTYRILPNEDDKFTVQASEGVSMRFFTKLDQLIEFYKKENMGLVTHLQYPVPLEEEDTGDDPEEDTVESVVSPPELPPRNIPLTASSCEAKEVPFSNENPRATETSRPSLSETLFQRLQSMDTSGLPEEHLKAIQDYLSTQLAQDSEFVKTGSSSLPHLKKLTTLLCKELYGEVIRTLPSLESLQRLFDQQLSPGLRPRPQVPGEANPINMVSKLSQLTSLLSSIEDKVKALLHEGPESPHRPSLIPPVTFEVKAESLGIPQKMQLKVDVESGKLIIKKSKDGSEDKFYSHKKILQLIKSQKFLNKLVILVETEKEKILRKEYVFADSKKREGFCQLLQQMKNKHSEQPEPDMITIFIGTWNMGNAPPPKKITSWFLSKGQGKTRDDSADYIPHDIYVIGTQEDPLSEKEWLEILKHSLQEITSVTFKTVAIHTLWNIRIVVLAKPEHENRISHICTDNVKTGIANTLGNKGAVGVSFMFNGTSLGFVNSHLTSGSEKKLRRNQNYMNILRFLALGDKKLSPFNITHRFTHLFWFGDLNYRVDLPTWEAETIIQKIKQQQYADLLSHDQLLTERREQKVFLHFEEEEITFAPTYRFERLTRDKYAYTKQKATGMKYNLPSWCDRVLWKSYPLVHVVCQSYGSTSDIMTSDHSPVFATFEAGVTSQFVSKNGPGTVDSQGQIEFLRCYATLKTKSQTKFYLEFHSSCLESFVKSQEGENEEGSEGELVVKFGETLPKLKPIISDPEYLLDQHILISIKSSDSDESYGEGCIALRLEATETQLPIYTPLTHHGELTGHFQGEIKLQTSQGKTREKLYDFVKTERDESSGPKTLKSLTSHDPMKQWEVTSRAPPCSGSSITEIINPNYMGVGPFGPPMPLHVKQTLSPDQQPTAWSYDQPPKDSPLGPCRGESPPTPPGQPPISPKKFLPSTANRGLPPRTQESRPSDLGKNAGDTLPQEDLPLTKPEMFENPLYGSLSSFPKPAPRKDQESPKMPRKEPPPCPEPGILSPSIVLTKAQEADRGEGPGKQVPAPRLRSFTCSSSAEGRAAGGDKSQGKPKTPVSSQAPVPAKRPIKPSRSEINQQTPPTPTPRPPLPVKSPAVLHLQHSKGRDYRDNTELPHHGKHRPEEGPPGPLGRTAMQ

T2: Inorganic pyrophosphatase (PPA1) (human, UniProt Q15181 2-289)
T2 construct: The array carries full-length recombinant human proteins expressed in S. cerevisiae; also called Human PPA1
T2 sequence: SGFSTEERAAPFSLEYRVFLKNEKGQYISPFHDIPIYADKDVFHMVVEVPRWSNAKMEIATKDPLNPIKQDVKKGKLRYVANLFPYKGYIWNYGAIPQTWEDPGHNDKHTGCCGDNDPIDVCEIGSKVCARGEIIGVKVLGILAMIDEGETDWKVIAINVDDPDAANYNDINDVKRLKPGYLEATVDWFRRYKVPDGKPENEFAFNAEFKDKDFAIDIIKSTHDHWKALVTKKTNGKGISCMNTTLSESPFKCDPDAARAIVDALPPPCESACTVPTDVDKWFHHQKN

B1: TMEL1014 (antibody, V domains shown)
VH: SVQLVESGGGVVQPGRSLRLSCAASGFTFSSYTMHWVRQAPGKGLEWVALISYDGSNKYYADSVKGRFTISRDNPKNTLYLQMNSLRVEDTAVYYCARDWTLGYWGQGTLVTVSS
VL: VSSELTQDPAVSVALGQTVRITCQGDSLRNYYANWYQQKPGQAPILVIYDKNNRPSGIPDRFSGSSSGNTASLTITGAQAEDEADYYCNSRDSSGYHLVFGGGTKLTVLG
notes: It was detected with an anti-human IgG Fc gamma secondary antibody
B2: TMEL1002 (antibody, V domains shown)
VH: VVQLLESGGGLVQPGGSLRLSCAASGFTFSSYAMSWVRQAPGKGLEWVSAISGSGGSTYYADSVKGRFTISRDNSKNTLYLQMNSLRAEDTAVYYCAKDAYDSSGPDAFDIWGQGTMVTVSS
VL: ASALTQPASVSGSPGQSITISCTGTSSDVGDYNYVSWYQQHPGKAPKLMIYDVSNRPSGVSNRFSGSKSGNTASLTISGLQAEDEADYYCSSYTSSSTLVFGGGTKLTVLG
B3: TMEL1007 (antibody, V domains shown)
VH: HVHLVQSGAEVKKPGSSVKVSCTASGGSFSSNPISWVRQAPGHGLQWMGGFVPLFGTANYAPSFHGRLTITADESTSTTYMELNSLRSEDSAVYYCARDFNWNFDFWGQGTLVTVSS
VL: QSALTQPASVSGSPGQSITISCTGTSSDIGSYNLVSWYRQYPGKAPKLMIYEVNKRPSGVSNRFSGSKSGNTASLTISGLQAEDEADYYCCSYAGTTTFVIFGRGTKLTVLG
notes: as for B1
B4: TMEL1004 (antibody, V domains shown)
VH: QITLKESGPTLVKPTQTLTLTCTFSGFSLNTPGVGVGWIRQPPGKALEWLALIYWDDDKRYRPSLESRLTITKDTSKNHVVLTMTNMDPVDTATYFCAHKNLQYSEWFDPWGQGTLVIVSS
VL: EMVLTQSPATLSLSPGERATLSCRASQSVSRNSLAWYQQRPGQTPRLLIYGASSRATGIPDRFSGSGSGTDFTLIISRLEPEDFAVYFCLQYDESPYTFGQGAKLEIKR
B5: TMEL1008 (antibody, V domains shown)
VH: QVQLVQSGAEVKKPGSSVKVSCKASGGTFNRDGIIWVRQAPGQGLEWMGRIIPILGIANYAQKFQGRVTIIADKSTSTAYMELSSLRSEDTAVYYCARESEVGRGMDVWGQGTTVTVSS
VL: ASALTQPASVSGSPGQSITISCTGTSSDVGDYNYVSWYQQHPGKAPKLMIYDVSNRPSGVSHRFSGSKSGNTASLTISGLQAEDEADYYCSSYTISSTLGVFGPGTKVTVLG
notes: as for B1
B6: TMEL1012 (antibody, V domains shown)
VH: PLQLQESGPGLVKPSETLSLTCTVSGDSITTTYYWGWIRQPPGKGLEWIASIYFTGSTFHNPSLKSRVTMSVDTSKNQFSLNLSSVTAADTAVYYCARRVGNWNYVWFDPWGQGTLVSVSS
VL: AYVLTQPPSVSVAPGQTARMTCGGNNIGSKSVHWYRQRPGQAPVLVVYDDTDRPSGIPERFSGSNSGNTATLTISRVEAGDEADYYCQVWDTNSDHVVFGGGTKLTVLG
B7: TMEL1009 (antibody, V domains shown)
VH: PVQLVQSGAEVKKPGSSVKVSCRASGGTFSNYGLNWVRQAPGQGLEWMGGIIPIFGSVNYAQKFQDRVTITADESTSTTYMDLNSLRSEDTAVYYCATERGHNMERAFDFWGQGTLVTVSS
VL: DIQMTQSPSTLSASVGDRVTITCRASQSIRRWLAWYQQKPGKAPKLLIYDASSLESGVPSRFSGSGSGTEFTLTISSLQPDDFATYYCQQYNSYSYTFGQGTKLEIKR
B8: TMEL1010 (antibody, V domains shown)
VH: QVQLVQSGAEVKKPGASVKVSCKASGYTFSSYGISWVRQAPGQGLEWMGWISAYNGNTNYAKKLQGRVTMTTDTSTSTAYLELRSLRSDDTAVYYCARGDGPFDYWGQGTLVTVSS
VL: EIVMTQSPATLSVSPGERATLSCWASQSVSSSLAWYQQKPGQAPRLLMYGASNRATGIPARFSGSGSGTEFTLTISSLQSEDFAVYYCQQYNKWPPDTFGQGTKLEIKR
notes: as for B1
B9: TMEL1013 (antibody, V domains shown)
VH: PVQLVQSGAEVKKPGSSVKVSCKASGGTFSSYTINWVRQAPGQGLEWMGRIIPILGVANYAQKFQGRVTITADKSTSTAYMDLSSLRSEDTAVYYCAREWERAFDYWGQGTLVTVSS
VL: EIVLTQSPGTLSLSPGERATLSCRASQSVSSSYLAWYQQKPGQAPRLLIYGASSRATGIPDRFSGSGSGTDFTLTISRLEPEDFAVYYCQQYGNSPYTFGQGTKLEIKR
B10: TMEL1011 (antibody, V domains shown)
VH: PVQLVQSGAEVKKPGSSVKVSCKASGGTFSSYSFNWVRQAPGQGLEWMARIIPILGLANYAQKFQGRVTLTADESTSTAYMELSSLRSEDTAIFYCAGMVLGQLGFDPWGQGTLVTVSS
VL: QFMLTQPHSVSESPGRTVTISCTRSSGSIARNYVHWYQHRPGSSPTTVIYEDDQRPSGVPDRFSGSIDSSSNSASLTISGLKPEDEADYFCQSYDSNIWVFGGGTKLTVLG
notes: as for B1

Each binder was assayed against T3, Alpha-taxilin (TXLNA) also known as interleukin-14A (human, UniProt P40222 1-546) (assay: HuProt protein array, F635 z-score).
T3 construct: The array carries full-length recombinant human proteins expressed in S. cerevisiae; also called IL-14A; TXLNA/IL-14A
From the text: (§1) Large scale protein arrays are versatile and sensitive platforms for antibody specificity evaluation. They can be used for the evaluation of protein binding or affinity reagents that are widely employed in research and clinical applications. The microarray used in our target identification experiment provides the largest number of unique, full-length, individually purified human proteins on a single microscope slide. This allows thousands of interactions to be profiled in a high-throughput manner. The hill-length recombinant proteins are expressed in the yeast S. cerevisiae, purified, and printed on glass slides in duplicate along with a set of control proteins (GST, BSA, histones, IgG, etc.). Such microarray is not restricted to a particular type of surface coating, although the default is glass coated with ultra-thin nitrocellulose film for the non-covalent, yet irreversible, capture of active proteins to the surface. Fourteen Protein arrays were used for the antibody cross-reactivity assay of the samples. The antibodies were probed at 1 μg/nil on the arrays and incubated at room temperature for 1 hour. After probing, the arrays were washed according to the protocol and probed with Alexa-647-anti-human IgG Fe gamma specific secondary antibodies under conditions optimized for signal detection. The antibody-antigen binding score was calculated for each protein represented on the array and expressed as z-scores.
(§2) Antibody samples are probed on native HuProt arrays at 1 μg/ml and incubated at room temperature for 1 hour. After probing, the arrays are washed according to the standard protocols and probed with Alexa-647-anti-human IgG Fc gamma specific secondary antibodies under conditions optimized for signal detection.
(§3) Z score is the average Z score of the duplicate spots of a given protein (each protein is printed in duplicate on a HuProt™ array). The Z score of each spot on a given array is calculated according to the equation: […]

T3 sequence (P40222 whole entry): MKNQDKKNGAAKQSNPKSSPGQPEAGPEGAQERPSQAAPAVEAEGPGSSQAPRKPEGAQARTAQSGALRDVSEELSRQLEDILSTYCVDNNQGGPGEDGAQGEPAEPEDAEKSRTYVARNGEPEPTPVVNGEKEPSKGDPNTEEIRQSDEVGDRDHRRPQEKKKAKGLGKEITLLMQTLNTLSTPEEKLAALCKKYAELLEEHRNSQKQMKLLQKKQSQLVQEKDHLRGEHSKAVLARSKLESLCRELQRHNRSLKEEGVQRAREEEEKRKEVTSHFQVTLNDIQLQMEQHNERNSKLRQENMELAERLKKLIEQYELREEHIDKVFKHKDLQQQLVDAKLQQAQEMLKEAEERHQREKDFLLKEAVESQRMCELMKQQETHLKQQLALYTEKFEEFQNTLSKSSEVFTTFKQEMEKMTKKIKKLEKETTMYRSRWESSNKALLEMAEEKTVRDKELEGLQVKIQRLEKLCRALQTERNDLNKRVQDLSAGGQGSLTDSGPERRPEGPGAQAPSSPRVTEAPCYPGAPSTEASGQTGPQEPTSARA

Binder | binding result
B1 | no binding (tested: 1 µg/ml)
B2 | no binding (tested: 1 µg/ml)
B3 | no binding (tested: 1 µg/ml)
B4 | no binding (tested: 1 µg/ml)
B5 | no binding (tested: 1 µg/ml)
B6 | no binding (tested: 1 µg/ml)
B7 | no binding (tested: 1 µg/ml)
B8 | no binding (tested: 1 µg/ml)
B9 | no binding (tested: 1 µg/ml)

Each binder was assayed against T4, Chromobox protein homolog 1 (CBX1) (human, UniProt P83916 1-185) (assay: HuProt protein array, F635 z-score).
T4 construct: The array carries full-length recombinant human proteins expressed in S. cerevisiae; also called Human Chromobox protein homolog 1
From the text: as §1, §2, §3

T4 sequence (P83916 whole entry): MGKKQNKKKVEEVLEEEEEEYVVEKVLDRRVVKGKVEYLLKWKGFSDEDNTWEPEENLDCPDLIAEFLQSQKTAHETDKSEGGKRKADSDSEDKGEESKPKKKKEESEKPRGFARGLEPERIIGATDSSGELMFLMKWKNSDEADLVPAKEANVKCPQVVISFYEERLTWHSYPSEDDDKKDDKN

Binder | binding result
B1 | no binding (tested: 1 µg/ml)
B2 | no binding (tested: 1 µg/ml)
B3 | no binding (tested: 1 µg/ml)
B4 | no binding (tested: 1 µg/ml)
B10 | no binding (tested: 1 µg/ml)
B5 | no binding (tested: 1 µg/ml)
B6 | no binding (tested: 1 µg/ml)
B7 | no binding (tested: 1 µg/ml)
B8 | no binding (tested: 1 µg/ml)
B9 | no binding (tested: 1 µg/ml)

Each binder was assayed against T5, Chromobox protein homolog 5 (CBX5) (human, UniProt P45973 1-191) (assay: HuProt protein array, F635 z-score).
T5 construct: The array carries full-length recombinant human proteins expressed in S. cerevisiae; also called Human Chromobox protein homolog 5
From the text: as §1, §2, §3

T5 sequence (P45973 whole entry): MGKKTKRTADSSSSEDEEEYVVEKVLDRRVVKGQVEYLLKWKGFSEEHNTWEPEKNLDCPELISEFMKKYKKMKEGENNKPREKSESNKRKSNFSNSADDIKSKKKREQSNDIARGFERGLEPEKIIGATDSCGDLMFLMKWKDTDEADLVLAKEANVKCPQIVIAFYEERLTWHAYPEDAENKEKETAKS

Binder | binding result
B1 | no binding (tested: 1 µg/ml)
B2 | no binding (tested: 1 µg/ml)
B3 | no binding (tested: 1 µg/ml)
B4 | no binding (tested: 1 µg/ml)
B10 | no binding (tested: 1 µg/ml)
B5 | no binding (tested: 1 µg/ml)
B6 | no binding (tested: 1 µg/ml)
B7 | no binding (tested: 1 µg/ml)
B8 | no binding (tested: 1 µg/ml)
B9 | no binding (tested: 1 µg/ml)

Each binder was assayed against T1, Src homology 2 (SH2) domain containing … (assay: HuProt protein array, F635 z-score).
From the text: as §1, §2, §3

Binder | binding result
B1 | no binding (tested: 1 µg/ml)
B2 | no binding (tested: 1 µg/ml)
B3 | no binding (tested: 1 µg/ml)
B4 | no binding (tested: 1 µg/ml)
B10 | no binding (tested: 1 µg/ml)
B5 | no binding (tested: 1 µg/ml)
B6 | no binding (tested: 1 µg/ml)
B7 | no binding (tested: 1 µg/ml)
B8 | no binding (tested: 1 µg/ml)
B9 | no binding (tested: 1 µg/ml)

What follows are binders tested against T2, Inorganic pyrophosphatase (PPA1) (assay: HuProt protein array, antibody at 1 µg/ml, Alexa-647 anti-human IgG Fc; F635 signal as z-score; PPA1 replicate 1).
From the text: as §1, with “The antibodies were probed at 1 μg/nil on the arrays and incubated at room temperature for 1 hour. After probing, the arrays were washed according to the protocol and probed with Alexa-647-anti-human IgG Fe gamma specific secondary antibodies under conditions optimized for signal detection.” left out, “z-scores. […]” for “z-scores.”
as §3

Binder | binding result
B8 | binds
